Experimental data published in paper PMC7617672, “Oryza genera-specific novel Histone H4 variant predisposes H4 Lysine5 Acetylation marks to modulate salt stress responses”.

Tests used:
[1] = biological target: rice histone H2A;rice histone H2B;rice histone H3;H4.VS (H4.V N-terminal 53 aa fused to H4 C-terminal 50 aa) (Oryza sativa;Oryza sativa;Oryza …, UniProt A2YMC6;A2WKP5;A2Y533;PDB:8Q16_4 ;;;, |||); experiment: EMSA (nucleosome reconstitution, native PAGE); mobility shift similar to H4 NCP; NCP gel: native 6% acrylamide, 0.5x TBE; peptide pull-down: 10 mM Tris pH 8.0, 50 mM NaCl, 5 mM MgCl2, 4 C, 6 h; cryo-EM: 10 mM Tris pH 8.0, 50 mM NaCl, 1 mM EDTA; settings: protein: recombinant;recombinant;recombinant;recombinant; tags: none;none;none;none; chain copies: 2;2;2;2; blunt
[2] = biological target: rice histone H2A;rice histone H2B;rice histone H3;rice histone H4 (Oryza sativa;Oryza sativa;Oryza …, UniProt A2YMC6;A2WKP5;A2Y533;B7F4Q1 ;;;1-103, |||); experiment: EMSA (nucleosome reconstitution, native PAGE); NCP gel: native 6% acrylamide, 0.5x TBE; peptide pull-down: 10 mM Tris pH 8.0, 50 mM NaCl, 5 mM MgCl2, 4 C, 6 h; cryo-EM: 10 mM Tris pH 8.0, 50 mM NaCl, 1 mM EDTA; settings: protein: recombinant;recombinant;recombinant;recombinant; tags: none;none;none;N-terminal MGS extension from vector; chain copies: 2;2;2;2; blunt

B1: Widom 601 NPS (147 bp as stated; 146 nt printed) (dsDNA)
DNA 1: CTGGAGAATCCCGGTGCCGAGGCCGCTCAATTGGTCGTAGACAGCTCTAGCACCGCTTAAACGCACGTACGCGCTGTCCCCCGCGTTTTAACCGCCAAGGGGATTACTCCCTAGTCTCCAGGCACGTGTCACATATATACATCCTG
DNA 2: CAGGATGTATATATGTGACACGTGCCTGGAGACTAGGGAGTAATCCCCTTGGCGGTTAAAACGCGGGGGACAGCGCGTACGTGCGTTTAAGCGGTGCTAGAGCTGTCTACGACCAATTGAGCGGCCTCGGCACCGGGATTCTCCAG
B1: binds [1]; binds [2].
